Like-named read-outs stand apart in the source and are kept apart here.
T1: SIRT3-FLAG (human, UniProt Q9NTG7 118-399)
T1 sequence (looked up): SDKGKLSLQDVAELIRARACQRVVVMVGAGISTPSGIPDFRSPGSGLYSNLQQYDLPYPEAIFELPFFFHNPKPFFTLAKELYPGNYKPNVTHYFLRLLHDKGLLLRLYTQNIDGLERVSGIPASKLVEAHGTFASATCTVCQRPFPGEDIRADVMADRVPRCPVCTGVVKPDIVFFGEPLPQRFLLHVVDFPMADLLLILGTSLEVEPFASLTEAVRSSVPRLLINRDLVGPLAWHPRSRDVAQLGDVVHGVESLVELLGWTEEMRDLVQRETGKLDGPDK


What was measured:
SIRT3-FLAG [1] = biological target: T1, SIRT3-FLAG; assay: BLI
SIRT3-FLAG [2] = biological target: T1, SIRT3-FLAG; assay: BLI; remark: listed apart in the source
SIRT3-HA (HeLa) (human) = assay: proximity ligation

| Kd (SIRT3-FLAG [1]) | Kd (SIRT3-FLAG [2]) | PLA signals per cell (signals per cell) (SIRT3-HA (HeLa) (human)) | percent of cells with PLA signal (SIRT3-HA (HeLa) (human)) | Binder |
| --- | --- | --- | --- | --- |
| 400 nM | 100 nM | – | – | ATP5O (recombinant) (domain or fragment, human, UniProt P48047 46-213, looked up) YSAASKQNKLEQVEKELLRVAQILKEPKVAASVLNPYVKRSIKVKSLNDITAKERFSPLTTNLINLLAENGRLSNTQGVVSAFSTMMSVHRGEVPCTVTSASPLEEATLSELKTVLKSFLSQGQVLKLEAKTDPSILGGMIVRIGEKYVDMSVKTKIQKLGRAMREIV |
| – | – | < 10 | 40% | ATP5O (endogenous, HeLa) (natural protein) FAKLVRPPVQVYGIEGRYATALYSAASKQNKLEQVEKELLRVAQILKEPKVAASVLNPYVKRSIKVKSLNDITAKERFSPLTTNLINLLAENGRLSNTQGVVSAFSTMMSVHRGEVPCTVTSASPLEEATLSELKTVLKSFLSQGQVLKLEAKTDPSILGGMIVRIGEKYVDMSVKTKIQKLGRAMREIV |

— publication PMC5134900 (Cell, 2016)
